From EP4617284A1 (Shanghai Novamab Biopharmaceuticals Co., Ltd., dated 2025)
Several values for one entry are separate records, joined by “and”; a condition that tells them apart may be missing. Equal entries are not always repeated.

B1: Lebrikizumab (antibody, V domains shown)
VH: QVTLRESGPALVKPTQTLTLTCTVSGFSLSAYSVNWIRQPPGKALEWLAMIWGDGKIVYNSALKSRLTISKDTSKNQVVLTMTNMDPVDTATYYCAGDGYYPYAMDNWGQGSLVTVSS
VL: DIVMTQSPDSLSVSLGERATINCRASKSVDSYGNSFMHWYQQKPGQPPKLLIYLASNLESGVPDRFSGSGSGTDFTLTISSLQAEDVAVYYCQQNNEDPRTFGGGTKVEIKR
B2: MY9286 (VHH)
VHH: EVQLLESGGGLVQPGGSLRLSCAASGFTFSDYTMTWVRQAPGKGLEWVSTVNPDGDSTFYRDSVKGRFTISRDNAKNTLYLQLSSLKTEDTAMYYCTKASLITWPQSPRGQGTLVTVSS
B3: MY9293 (VHH)
VHH: EVQLLESGGGLVQPGESLRLSCEVSGHTHTNYCMGWFRQAPGKGLEGVAAIDTDGSTTYADSVKGRFTISKDNAKNTLYLQMNSLKPEDTAMYYCMAEDFRDEYAPEPRLSSGGYCSIGYGMDYWGKGTLVTVSS
B4: MY9431 (VHH)
chain: EVQLLESGGGLVQPGGSLRLSCAASGFTFSDYTMTWVRQAPGKGLEWVSTVNPDGDSTFYRDSVKGRFTISRDNAKNTLYLQLSSLKTEDTAMYYCTKASLITWPQSPRGQGTLVTVSSGGGGSGGGGSGGGGSGGGGSEVQLLESGGGLVQPGESLRLSCEVSGHTHTNYCMGWFRQAPGKGLEGVAAIDTDGSTTYADSVKGRFTISKDNAKNTLYLQMNSLKPEDTAMYYCMAEDFRDEYAPEPRLSSGGYCSIGYGMDYWGKGTLVTVSS
B5: MY9464 (VHH)
chain: EVQLLESGGGLVQPGESLRLSCEVSGHTHTNYCMGWFRQAPGKGLEGVAAIDTDGSTTYADSVKGRFTISKDNAKNTLYLQMNSLKPEDTAMYYCMAEDFRDEYAPEPRLSSGGYCSIGYGMDYWGKGTLVTVSSGGGGSGGGGSGGGGSGGGGSEVQLLESGGGLVQPGGSLRLSCAASGFTFSDYTMTWVRQAPGKGLEWVSTVNPDGDSTFYRDSVKGRFTISRDNAKNTLYLQLSSLKTEDTAMYYCTKASLITWPQSPRGQGTLVTVSS
B6: MY9466 (VHH)
VHH: B3 VHH
B7: MY9470 (VHH)
chain: EVQLLESGGGLVQPGESLRLSCEVSGHTHTNYCMGWFRQAPGKGLEGVAAIDTDGSTTYADSVKGRFTISKDNAKNTLYLQMNSLKPEDTAMYYCMAEDFRDEYAPEPRLSSGGYCSIGYGMDYWGKGTLVTVSSGGGGSGGGGSGGGGSGGGGSEVQLLESGGGLVQPGESLRLSCEVSGHTHTNYCMGWFRQAPGKGLEGVAAIDTDGSTTYADSVKGRFTISKDNAKNTLYLQMNSLKPEDTAMYYCMAEDFRDEYAPEPRLSSGGYCSIGYGMDYWGKGTLVTVSS
B8: MY9217 (bispecific antibody)
chain: EVQLLESGGGLVQPGGSLRLSCAASGFTFSDYTMTWVRQAPGKGLEWVSTVNPDGDSTFYRDSVKGRFTISRDNAKNTLYLQLSSLKTEDTAMYYCTKASLITWPQSPRGQGTLVTVSSGGGGSGGGGSGGGGSGGGGSEVQLQESGGGLVEPGGSLRLSCVASGFTFQHYAMSWVRQAPGKGLEWVSSISMVGGGTSYADSVKGRFTMSRDNAKNTLYLQLNSLKSEDTAMYYCVRGWHPDVPRPLGQGTLVTVSSGGGGSGGGGSGGGGSGGGGSEVQLLESGGGLVQPGESLRLSCEVSGHTHTNYCMGWFRQAPGKGLEGVAAIDTDGSTTYADSVKGRFTISKDNAKNTLYLQMNSLKPEDTAMYYCMAEDFRDEYAPEPRLSSGGYCSIGYGMDYWGKGTLVTVSSA
notes: Trivalent long-acting nanobody: two anti-IL-13 VHH and one anti-HSA VHH in one chain; also called MY9286-GS20-HSA HuNb3-11-GS20-MY9293
B9: MY9219 (bispecific antibody)
chain: EVQLQESGGGLVEPGGSLRLSCVASGFTFQHYAMSWVRQAPGKGLEWVSSISMVGGGTSYADSVKGRFTMSRDNAKNTLYLQLNSLKSEDTAMYYCVRGWHPDVPRPLGQGTLVTVSSGGGGSGGGGSGGGGSGGGGSEVQLLESGGGLVQPGGSLRLSCAASGFTFSDYTMTWVRQAPGKGLEWVSTVNPDGDSTFYRDSVKGRFTISRDNAKNTLYLQLSSLKTEDTAMYYCTKASLITWPQSPRGQGTLVTVSSGGGGSGGGGSGGGGSGGGGSEVQLLESGGGLVQPGESLRLSCEVSGHTHTNYCMGWFRQAPGKGLEGVAAIDTDGSTTYADSVKGRFTISKDNAKNTLYLQMNSLKPEDTAMYYCMAEDFRDEYAPEPRLSSGGYCSIGYGMDYWGKGTLVTVSSA
notes: Trivalent long-acting nanobody: two anti-IL-13 VHH and one anti-HSA VHH in one chain; also called HSA HuNb3-11-MY9286-GS20-MY9293-GS20
B10: HuNb3-11 (VHH)
VHH: EVQLQESGGGLVEPGGSLRLSCVASGFTFQHYAMSWVRQAPGKGLEWVSSISMVGGGTSYADSVKGRFTMSRDNAKNTLYLQLNSLKSEDTAMYYCVRGWHPDVPRPLGQGTLVTVSS
notes: also called HSA HuNb3-11; Control antibody 3

Columns and labels:
recombinant human IL-13 [1] = target: T1, recombinant human IL-13 (human, UniProt P35225 35-146, limits assumed); test: cell-based or functional assay
recombinant human IL-13 [2] = target: T1, recombinant human IL-13; test: cell-based or functional assay; remark: listed apart in the source
recombinant human IL-13 [3] = target: T1, recombinant human IL-13; test: cell-based or functional assay; remark: listed apart in the source
human serum albumin [4] = target: T2, human serum albumin (human, UniProt P02768 25-609); test: HSA binding activity, pH 7.4; method not described
T2 construct: also called HSA

human serum albumin [5] = target: T2, human serum albumin; test: HSA binding activity, pH 5.5; method not described

T1 sequence (P35225 35-146 limits assumed): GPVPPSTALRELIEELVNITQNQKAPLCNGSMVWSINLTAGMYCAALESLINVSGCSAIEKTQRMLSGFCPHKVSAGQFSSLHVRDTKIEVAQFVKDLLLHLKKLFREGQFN

IL-13 functional activity IC50 (recombinant human IL-13 [2])	Activity IC50 (µg/mL), HEK-Blue IL-4/IL-13 cells (recombinant human IL-13 [1])	EC50 (human serum albumin [4])	EC50 (human serum albumin [5])	also measured	Binder
0.0076 µg/mL	–	–	–	Control antibody 2 IC50 (µg/mL), HEK-Blue IL-4/IL-13 cells (recombinant human IL-13 [1]): 0.0043 µg/mL and 0.0041 µg/mL and 0.004 µg/mL	B1
–	–	–	–	Humanized nanobody IC50 (µg/mL), HEK-Blue IL-4/IL-13 cells (recombinant human IL-13 [3]): 3.42 µg/mL	B2
–	–	–	–	Humanized nanobody IC50 (µg/mL), HEK-Blue IL-4/IL-13 cells (recombinant human IL-13 [3]): 1.05 µg/mL	B3
–	0.0014 µg/mL	–	–	–	B4
–	0.0029 µg/mL	–	–	–	B5
–	0.0038 µg/mL	–	–	–	B6
–	1.75 µg/mL	–	–	–	B7
0.0029 µg/mL	–	0.0648 µg/mL	0.0953 µg/mL	–	B8
0.0024 µg/mL	–	0.0467 µg/mL	0.0648 µg/mL	–	B9
–	–	0.11 µg/mL	0.164 µg/mL	–	B10
